Test results taken from patent US20140011732A1.

Target: human serum albumin (HSA) (human) (UniProt P02768)
Assay: competition SPA on biotinylated HSA, 125I acylated GLP-1 tracer

N-epsilon37-[2-(2-[2-(2-[2-(2-((R)-3-[1-(17-Carboxyheptadecanoyl)piperidin-4-ylcarbonylamino]3-carboxypropionylamino)ethoxy)ethoxy]acetylamino)ethoxy]ethoxy)acetyl][DesaminoHis7, Glu22 Arg26, Arg 34,, sequence (peptide): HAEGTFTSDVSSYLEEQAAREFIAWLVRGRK

N-epsilon37-[2-(2-[2-(2-[2-(2-((R)-3-[1-(17-Carboxyheptadecanoyl)piperidin-4-ylcarbonylamino]3-carboxypropionylamino)ethoxy)ethoxy]acetylamino)ethoxy]ethoxy)acetyl][DesaminoHis7, Glu22 Arg26, Arg 34, Phe(m-CF3)28]GLP-1-(7-37)amide (peptide)
EC50: 0.8 µM
